{"source": "patent US20230090156A1", "about": "(NANYANG TECHNOLOGICAL UNIVERSITY, published 2023)", "binders": {"B1": {"name": "Antuzumab 1 (antibody, V domains shown)", "VH": "QVTLKESGPTLVKPTQTLTLTCTFSGFSLSTSGMGVGWIRQPPGKALEWLAHIWWDDDKYYNPSLKSRLTISKDTSKNQVVLTMTNMDPVDTATYYCARKDYGSSYDYWGQGTTVTVSS", "VL": "DIVMTQSPLSLPVTPGEPASISCKASQSVDYDGDSYLNWYLQKPGQSPRLLIYTASNLESGVPDRFSGSGSGTDFTLKISRVEAEDVGVYYCFQSNEDPWTFGQGTKLEIK", "notes": "Humanized monoclonal antibody made in CHO cells; also called ANG49; ANGH3 + ANGK3"}, "B2": {"name": "Antuzumab 2 (antibody, V domains shown)", "VH": "B1 VH with V2I, S72T, V81D, N86F, V90W, R99H, T114L", "VL": "DIQMTQSPSSLSASVGDRVTITCKASQSVDYDGDSYLNWYQQKPGKAPNLLIYTASNLESGVPSRFSGSGSGTDFTLTISSLQPEDFATYYCQQSNEDPWTFGEGTKVEIK", "notes": "Humanized monoclonal antibody made in CHO cells; also called ANG50; ANGH4 + ANGK4"}, "B3": {"name": "Antuzumab 3 (antibody, V domains shown)", "VH": "B1 VH with V2I, S72T, T114L", "VL": "DIVMTQSPDSLAVSLGERATINCKASQSVDYDGDSYLNWYQQKPGQPPKLLIYTASNLESGVPDRFSGSGSGTDFTLTISSLQAEDVAVYYCQQSNEDPWTFGQGTKVEIK", "notes": "Humanized monoclonal antibody made in CHO cells; also called ANG27; ANGH1 + ANGK1"}, "B4": {"name": "murine monoclonal antibody mAb11F6C4 (antibody, V domains shown)", "VH": "QITLKESGPGILKPSQTLSLTCSFSGFSLSTSGMGVGWIRQPSGKGLEWLAHIWWDDDKYYNPSLKSQLTISKDTSRNQVFLKITSVDTADTATYYCARKDYGSSYDYWGQGTTLTVSS", "VL": "DIVLTQSPASLAVSLGQRATISCKASQSVDYDGDSYLNWFQQKPGQPPKLLIYTASNLESGIPARFSGSGSGTDFTLNIHPVEEEDAATYYCQQSNEDPWTFGGGTTLEIK", "notes": "Murine monoclonal antibody, the parent of the humanized antibodies; also called Control 11F6C4; original mouse-derived mAb"}}, "note": "Changes are numbered by the printed parent chain.", "data": [{"biological_target": "T1, human cANGPTL4 (C-terminal fragment of Angiopoietin-like 4 protein) (human, UniProt Q9BY76 186-406, limits assumed)", "T1 construct": "domain: C-terminal fragment (cANGPTL4); Purified cANGPTL4 was immobilised by amine coupling on the CM5 chip for SPR and on carboxylated microwell plates for ELISA; also called purified cANGPTL4; human cANGPTL4 antigen", "T1 sequence (looked up)": "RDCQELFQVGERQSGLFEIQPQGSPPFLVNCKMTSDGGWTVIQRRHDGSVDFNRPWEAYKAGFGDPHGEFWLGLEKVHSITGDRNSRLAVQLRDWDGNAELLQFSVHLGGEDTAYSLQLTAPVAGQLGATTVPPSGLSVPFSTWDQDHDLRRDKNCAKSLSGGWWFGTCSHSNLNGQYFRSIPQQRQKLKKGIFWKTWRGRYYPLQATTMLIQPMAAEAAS", "assay": "SPR (BIACORE 3000), cANGPTL4 amine-coupled to CM5 chip, antibody as analyte", "procedure": "Surface Plasmon Resonance (SPR): Sensor CM5 chips and amine coupling kits were from GE Healthcare. Purified cANGPTL4 was immobilized onto a CM5-carboxylated dextran sensor chip by amine coupling using the Surface Prep Module of BIACORE 3000 as recommended by the manufacturer (BIAcore). Antuzumab (0.16, 0.32, 0.63, 1.25, 2.50, and 5.0 μm) diluted and buffered with 50 mm Tris, pH 8.0, was introduced into the cANGPTL4-conjugated CM5 chip at a flow rate of 5 μI/min for 10 min with running buffer (50 mm Tris, pH 8.0, 100 mm NaCl). After incubation for 45 s, the chamber was washed with the same buffer, and the bound molecules were subsequently eluted using 10 mm glycine, pH 6.0. The CM5 chip was reused after washing with running buffer for 10 min at 20 μI/min. Each sensorgram was corrected by subtracting a sensorgram obtained from a reference flow cell with no immobilized protein. Global fitting of the SPR data was used to determine the association (Kₐₛₛ) and dissociation (Kdiss) with Scrubber 2 software. Values are given as the mean±S.D. of three independent preparations of Antuzumab.", "units": {"Fold increase (affinity against control 11F6C4)": "fold", "Kd": "nM", "koff": "s⁻¹", "kon": "M⁻¹ s⁻¹"}, "values": [{"binder": "B1", "Fold increase (affinity against control 11F6C4)": 7.86, "Kd": 1.05, "koff": 0.000693, "kon": 658000}, {"binder": "B2", "Fold increase (affinity against control 11F6C4)": 5.37, "Kd": 1.54, "koff": 0.000764, "kon": 495000}, {"binder": "B3", "Fold increase (affinity against control 11F6C4)": 1.85, "Kd": 4.47, "koff": 0.000948, "kon": 212000}, {"binder": "B4", "Fold increase (affinity against control 11F6C4)": 1, "Kd": 8.28, "koff": 0.000905, "kon": 109000}]}]}
